Our source for the percent inhibition of the binding of scFv-L-Aff to immobilised hapten values is article PMC4103757.

The assay deals with scFv-L-Aff, heterobivalent fusion protein of anti-hapten scFv (clone J42) and anti-HER2 affibody (Z_(HER2:477)). The assay is described as follows: SPR.

Numbered stars: 1 amine (or outer) side, 2 acyl side, 3 side chain; on linkers, the order of the positions; unused ones are H or OH. Suc = O=C(CCC(=O)[*:2])[*:1]

{histamine-Suc}-GSYK-NH2 [hapten peptide, histamine-succinyl-GSYK] yielded a percent inhibition of the binding of scFv-L-Aff to immobilised hapten of 84%.
